Tests used:
[1] = test system: haemagglutinin on whole H9N2 virus (Influenza A virus H9N2 (avian; strain not given in material)); assay: competition ELAA
[2] = test system: purified haemagglutinin H9 (H9-HA) (Influenza A virus H9N2 (avian; strain not given in material)); assay: capillary electrophoresis
[3] = test system: haemagglutinin on whole H9N2 virus (Influenza A virus H9N2 (avian; strain not given in material)); assay: capillary electrophoresis

## GCTGCAATACTCATGGACAGCCTCCTGGGGTCAGGCTCAGACATTGATAAAGCGACATCGGTCTGGAGTACGACCCTGAA [A9]
[1]
  inhibition of binding: 76.3 % inhibition
[2]
  Kd: 46.2 nM
[3]
  Kd: 42.5 nM

## GCTGCAATACTCATGGACAGCGGGGGTCTCGCCCTCCCGGCGGCCTCGGCGAGCGTCGGCGTCTGGAGTACGACCCTGAA [A6]
[2]
  Kd: 20.6 nM
